Data on 2 molecules can be found in article PMC8770391 (Biosensors & Bioelectronics, 2022).

This assay deals with SARS-CoV-2 antigen (nucleocapsid protein) (SARS-CoV-2; strain of the recombinant …, UniProt P0DTC9). The experiment in a line: ELISA.

B1: detection antibody against the SARS-CoV-2 antigen (antibody, V domains shown)
VH: EVQLVESGGGLVQPGGSLRLSCAASGFTFSTYAMSWVRQAPGKGLEWVSGITGSGGATDYADSVKGRFTISRDNSKNTLYLQMNSLRAEDTAVYYCARINYRAVWGMDYWGQGTLVTVSS
VL: DIQMTQSPSSLSASVGDRVTITCRASQNVSSYLAWYQQKPGKAPKLLIYGASNLASGVPSRFSGSGSGTDFTLTISSLQPEDFATYYCQQGANAPLTFGQGTKVETK
Broadly, the Kd is the equilibrium constant for the complex coming apart. Consider B1, for which the Kd came out at 0.66 nM.

B2: reporter antibody against the SARS-CoV-2 antigen (antibody, V domains shown)
VH: EVQLVESGGGLVQPGGSLRLSCAASGFTFANNAMSWVRQAPGKGLEWVSGINGYDGDTYYADSVKGRFTISRDNSKNTLYLQMNSLRAEDTAVYYCARTYYSYAMDYWGQGTLVTVSS
VL: DIQMTQSPSSLSASVGDRVTITCRASQNISSYLAWYQQKPGKAPKLLIYWASNLASGVPSRFSGSGSGTDFTLTISSLQPEDFATYYCQQGAQIPLTFGQGTKVEIK
Take B2: the Kd worked out at 0.69 nM.
